Test results as given in the Human Domainome abundance scans (Beltran et al. 2025).

B1: Histone-lysine N-methyltransferase 2A, residues 1148 to 1194; numbered along this chain, Q03164 (parent)
chain: KGRRSRRCGQCPGCQVPEDCGVCTNCLDKPKFGGRNIKKQCCKMRKC

Variants of: B1
Test: abundance fitness (aPCA) (normalised: wild type 0, dead -1); higher = more abundant; growth selection in yeast, the domain comes from the species named
Details: Homo sapiens

Abundance fitness of substitutions, site by site:
Q10: V -0.296 | C -0.459 | A 0.031 | I -0.02 | D -0.589 | E -0.183 | S -0.069 | L -0.322 | G -0.235 | P -0.48
T24: A -0.143 | E 0.038 | C -0.441
V16: K 0.103 | D -0.783 | C -0.468 | G -0.705 | I -0.066 | R 0.196 | A -0.278 | P -0.414 | L 0.205 | S -0.168 | N 0.146 | E -0.522 | Q 0.223 | M 0.159 | T 0.173 | H -0.3 | Y -0.178 | W -0.285
D19: A -0.797 | I -1.24 | Y -0.859 | W -0.861 | P -0.935 | M -0.339 | H -0.677 | V -0.901 | L -0.878 | E -0.962 | F -1.02 | N -0.624 | R -0.775 | K -0.898 | T -0.865 | C -0.977 | G -0.96 | Q -1.05
P17: L -0.06 | G -0.082 | N -0.313 | E 0.074 | A -0.058 | F -0.123 | M -0.241 | Q -0.159 | T 0.161 | C -0.367 | W -0.215 | Y -0.485 | V -0.057 | K 0.095 | D -0.615 | I -0.358 | S 0.026
G13: W -0.708 | H -0.884 | K -0.678 | L -0.445 | N -0.266 | P 0.152 | M -0.381 | Q -0.068 | D -0.313 | R -0.719 | A -0.219 | Y -0.393 | E -0.353 | C -0.315 | I -0.606 | F -0.522 | T -0.455
C20: N -0.898 | W -0.95 | M -0.925 | K -0.594 | Y -0.994 | D -0.782 | S -0.832 | A -0.961 | E -0.736 | F -1.03 | H -0.97 | I -0.895 | R -0.654 | P -0.947 | Q -0.866 | T -0.753
R6: W -0.064 | Y -0.207 | T -0.179 | H 0.089 | E 0.138 | N 0.158 | S 0.06 | M -0.171 | F 0.1 | P 0.054 | C -0.407 | I 0.019 | K -0.143 | L -0.014 | V -0.204 | D 0.143 | A 0.182 | G -0.088
C11: P -0.693 | Q -0.915 | G -0.643 | V -0.371 | L -0.967 | T -0.519 | A -0.696 | H -0.495 | M -0.784 | S -0.55 | I -0.913 | Y -0.827 | E -0.799 | K -0.964 | F -0.719 | R -0.81 | W -0.674
C8: M -0.496 | A -0.786 | W -0.863 | F -0.704 | D -0.442 | T -0.7 | R -0.809 | G -0.457 | L -0.648 | E -0.506 | V -0.691 | I -0.585 | S -0.626 | K -0.583 | P -0.613 | Y -0.944 | Q -0.568
C14: D -0.779 | Y -0.554 | R -0.784 | I -0.663 | G -0.559 | V -0.7 | A -0.738 | L -0.916 | P -0.765 | Q -0.183 | T -0.728 | M -0.713 | N -0.288 | F -0.913 | W -0.727 | S -0.49
